Data on 5 molecules can be found in patent US20060177831A1 (published 2006).

To fix the notation:
B1: Anti-c-MET Avimer monomer M21 (designed binder)
chain: CVSNEFTCRSTKRCVPQEWVCDGVNDCEDGSDETGCPKHTSLQ
notes: Assayed protein also bears HA and 6His tags; also called C382
B2: Anti-c-MET Avimer monomer M38 (designed binder)
chain: B1 chain
notes: Assayed protein also bears HA and 6His tags; also called C399
B3: Anti-c-MET Avimer monomer M13 (designed binder)
chain: CLADEFQCHSTKRCVPRHWLCDGVNDCEDGSDEKSCSQDPEFHKVSLQ
notes: Assayed protein also bears HA and 6His tags; also called C239
B4: c-MET extracellular domain (ECD)/Fc chimera (Fc fusion, not shown: a dimerising Fc or GST)
chain: ECKEALAKSEMNVNMKYQLPNFTAETPIQNVILHEHHIFLGATNYIYVLNEEDLQKVAEYKTGPVLEHPDCFPCQDCSSKANLSGGVWKDNINMALVVDTYYDDQLISCGSVNRGTCQRHVFPHNHTADIQSEVHCIFSPQIEEPSQCPDCVVSALGAKVLSSVKDRFINFFVGNTINSSYFPDHPLHSISVRRLKETKDGFMFLTDQSYIDVLPEFRDSYPIKYVHAFESNNFIYFLTVQRETLDAQTFHTRIIRFCSINSGLHSYMEMPLECILTEKRKKRSTKKEVFNILQAAYVSKPGAQLARQIGASLNDDILFGVFAQSKPDSAEPMDRSAMCAFPIKYVNDFFNKIVNKNNVRCLQHFYGPNHEHCFNRTLLRNSSGCEARRDEYRTEFTTALQRVDLFMGQFSEVLLTSISTFIKGDLTIANLGTSEGRFMQVVVSRSGPSTPHVNFLLDSHPVSPEVIVEHTLNQNGYTLVITGKKITKIPLNGLGCRHFQSCSQCLSAPPFVQCGWCHDKCVRSEECLSGTWTQQICLPAIYKVFPNSAPLEGGTRLTICGWDFGFRRNNKFDLKKTRVLLGNESCTLTLSESTMNTLKCTVGPAMNKHFNMSIIISNGHGTTQYSTFSYVDPVITSISPKYGPMAGGTLLTLTGNYLNSGNSRHISIGGKTCTLKSVSNSILECYTPAQTISTEFAVKLKIDLANRETSIFSYREDPIVYEIHPTKSFISGGSTITGVGKNLNSVSVPRMVINVHEAGRNFTVACQHRSNSEIICCTTPSLQQLNLQLPLKTKAFFMLDGILSKYFDLIYVHNPVFKPFEKPVMISMGNENVLEIKGNDIDPEAVKGEVLKVGNKSCENIHLHSEAVLCTVPNDLLKLNSELNIEWKQAISSTVLGKVIVQPDQNFT
B5: Anti-c-MET Avimer monomer M20 (designed binder)
chain: CEADEFRCRSTGRCISVDWRCDGVSDCEDSSDEESCESTAPTSLQ
notes: Assayed protein also bears HA and 6His tags; also called C381

Assay [1] concerns the target B4. Briefly: binding ELISA on c-MET ECD/Fc, NiNTA-pure. (An ELISA detects its analyte on a solid surface through an enzyme-linked reagent.)
For assay [2], the target named is B4. Briefly: AlphaScreen competition with bn-HGF for c-MET ECD/Fc, NiNTA-pure. For orientation: Alpha assays give light when donor and acceptor beads are brought close together.
The target in assay [3] is B4. Briefly: AlphaScreen competition with bn-HGF for c-MET ECD/Fc, Q-pure.
For assay [4], the target named is recombinant human HGF (human, UniProt P14210 32-728). The assay is described as follows: cell-based or functional assay.
recombinant human HGF, sequence (P14210 32-728 limits assumed): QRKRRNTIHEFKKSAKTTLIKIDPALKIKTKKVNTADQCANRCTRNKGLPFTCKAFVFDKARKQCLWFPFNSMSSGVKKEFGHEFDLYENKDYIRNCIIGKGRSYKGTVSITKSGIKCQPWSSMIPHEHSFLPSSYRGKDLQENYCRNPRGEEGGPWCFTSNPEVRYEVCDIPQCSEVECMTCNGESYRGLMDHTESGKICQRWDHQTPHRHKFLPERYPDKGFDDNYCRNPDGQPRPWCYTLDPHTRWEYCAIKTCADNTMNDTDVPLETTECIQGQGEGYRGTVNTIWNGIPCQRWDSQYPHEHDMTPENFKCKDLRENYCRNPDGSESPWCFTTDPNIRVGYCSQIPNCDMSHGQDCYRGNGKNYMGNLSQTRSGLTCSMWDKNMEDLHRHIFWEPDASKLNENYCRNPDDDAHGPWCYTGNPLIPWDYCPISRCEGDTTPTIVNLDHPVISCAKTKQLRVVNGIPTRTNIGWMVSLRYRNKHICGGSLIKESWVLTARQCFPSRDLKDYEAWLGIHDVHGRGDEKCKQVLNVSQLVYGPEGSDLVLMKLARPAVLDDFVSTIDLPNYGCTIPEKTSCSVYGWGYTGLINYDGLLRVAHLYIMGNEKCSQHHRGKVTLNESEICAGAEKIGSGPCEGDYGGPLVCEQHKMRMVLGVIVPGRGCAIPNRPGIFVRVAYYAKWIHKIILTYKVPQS

The Kd is the equilibrium constant for the complex coming apart. Read a low Kd as higher affinity. In general, IC50 refers to the point on the concentration scale where inhibition reaches its midpoint. A lower IC50 goes with inhibition by little substance. With B1, in assay [1], the Kd came to 116 nM. Besides, the IC50 in assay [2] was determined as 83 nM.
B2 came in with a Kd in assay [1] of 95 nM. In addition, the results for the IC50 in assay [3] and in assay [2] were 881 nM and 50 nM, respectively.
As to B3, the concentration for half-maximal inhibition (IC50) in assay [2] is 247 nM.
As to B4, the “IC50, inhibition of HGF-induced proliferation of serum-starved A549-SC cells (tritiated thymidine)” value in assay [4] stood at 1.73 nM.
With B5, the Kd in assay [1] was found to be 158 nM. For the same molecule, the IC50 worked out at 186 nM in assay [3] and 22 nM in assay [2].
